# According to US20030022265:
# Experiments:
# [1] = tested on: product of plasmid pADH-SteInv
# [2] = molecular target: T1, fusion protein comprising Golgi recognition signal and transmembrane domain of yeast Golgi protein Ste13, cleavage site of yeast α-factor, and yeast invertase (UniProt P33894)
# T1 sequence: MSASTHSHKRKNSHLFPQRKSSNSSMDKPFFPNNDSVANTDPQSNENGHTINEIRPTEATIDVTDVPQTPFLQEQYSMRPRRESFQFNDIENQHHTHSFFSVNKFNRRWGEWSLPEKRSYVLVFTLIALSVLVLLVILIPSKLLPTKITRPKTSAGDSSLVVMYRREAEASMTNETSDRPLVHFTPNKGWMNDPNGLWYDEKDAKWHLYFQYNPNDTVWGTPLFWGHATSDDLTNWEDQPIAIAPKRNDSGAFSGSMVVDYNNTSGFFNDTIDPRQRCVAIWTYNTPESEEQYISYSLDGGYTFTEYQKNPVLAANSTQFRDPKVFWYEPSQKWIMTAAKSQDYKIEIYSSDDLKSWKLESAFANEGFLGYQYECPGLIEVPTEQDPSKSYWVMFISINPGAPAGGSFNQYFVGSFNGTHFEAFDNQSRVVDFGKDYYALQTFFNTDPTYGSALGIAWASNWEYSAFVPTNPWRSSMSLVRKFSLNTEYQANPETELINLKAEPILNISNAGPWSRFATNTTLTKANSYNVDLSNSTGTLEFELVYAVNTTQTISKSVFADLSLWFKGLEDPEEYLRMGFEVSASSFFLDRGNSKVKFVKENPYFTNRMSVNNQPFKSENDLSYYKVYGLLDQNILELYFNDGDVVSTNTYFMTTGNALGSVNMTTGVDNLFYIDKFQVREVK
# [3] = tested on: plasmid library of pADH-SteSubInv with random substitution of the 5th and 6th amino acids of cleavage region of α-factor
substance,measurement,setting,value
Kex2,"viability of cotransformed suc2, kex2 mutant yeast on sucrose-containing plate",[1],transformants of test groups 2 to 4 were not able to grow on sucrose plates
same,"viability of cotransformed suc2, kex2 mutant yeast on sucrose-containing plate",[2],transformants of test group 1 were survived both on glucose-containing and sucrose-containing plates
same,residues found at the randomised substrate positions in colonies grown on sucrose plates,[3],"Various amino acids such as D, E, A, V, P, S, Q, K, R, and H were found at the 6th amino acid, while, solely R was found at the 5th amino acid"
